The target in this test is human c-Kit (wild type) on the cell surface of LAD2 cells (human, UniProt P10721 26-976). Put plainly: cell-based or functional assay.
Sequence of human c-Kit (wild type) on the cell surface of LAD2 cells (P10721 26-976): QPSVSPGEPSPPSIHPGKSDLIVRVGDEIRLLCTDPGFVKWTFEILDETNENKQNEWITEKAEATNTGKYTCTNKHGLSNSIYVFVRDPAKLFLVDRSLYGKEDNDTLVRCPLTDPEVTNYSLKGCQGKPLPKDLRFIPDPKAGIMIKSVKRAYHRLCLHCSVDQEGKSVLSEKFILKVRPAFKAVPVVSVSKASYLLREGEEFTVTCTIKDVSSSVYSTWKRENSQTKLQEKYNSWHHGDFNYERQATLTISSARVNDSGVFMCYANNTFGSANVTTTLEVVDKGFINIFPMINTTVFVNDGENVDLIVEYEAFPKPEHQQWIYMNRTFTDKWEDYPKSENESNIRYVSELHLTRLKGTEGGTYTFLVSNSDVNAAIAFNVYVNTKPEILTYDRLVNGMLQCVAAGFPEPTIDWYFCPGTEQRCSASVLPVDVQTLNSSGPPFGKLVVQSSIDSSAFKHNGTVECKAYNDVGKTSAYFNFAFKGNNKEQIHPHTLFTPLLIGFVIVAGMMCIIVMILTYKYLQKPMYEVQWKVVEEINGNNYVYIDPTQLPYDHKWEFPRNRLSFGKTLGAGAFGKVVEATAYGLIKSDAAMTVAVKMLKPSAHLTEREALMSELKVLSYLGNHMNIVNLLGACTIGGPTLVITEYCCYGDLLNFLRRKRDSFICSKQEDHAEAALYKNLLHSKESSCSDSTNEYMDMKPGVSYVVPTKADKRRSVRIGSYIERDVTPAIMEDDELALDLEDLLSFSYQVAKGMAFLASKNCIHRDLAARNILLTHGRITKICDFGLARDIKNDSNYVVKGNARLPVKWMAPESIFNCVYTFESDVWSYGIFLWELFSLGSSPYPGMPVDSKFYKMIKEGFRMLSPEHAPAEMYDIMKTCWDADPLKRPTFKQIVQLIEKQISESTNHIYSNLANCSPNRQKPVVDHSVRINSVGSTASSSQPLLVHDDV

B1: 2G4 antibody (antibody, human IgG1, kappa, V domains shown)
VH: QVQLVESGGGVVQPGRSLRLSCAASGFTFSRYGMHWVRQAPGKGLEWVAVIWYDGTNKDYTDSVRGRFTISRDNSKNTLYLQMNSLRAEDTAVYYCAREDWAEAFDMWGQGTTVTVSS
VL: not shown
As for B1, the “IC50 of degranulation (β-hexosaminidase release) increased by SCF and streptavidin in IgE-sensitized LAD2 cells” value stood at 0.00636 µg/mL; the “half-maximal inhibitory concentration (IC50) of SCF-mediated proliferation of LAD2 cells” value was 0.058 µg/mL.

The record behind these values is patent US20250230235A1 (NOVELTY NOBILITY, published 2025).
